Measured values reported in USRE46585 (LABORATOIRE FRANCAIS DU FRACTIONNEMENT ET DES …, dated 2017).

Tests used:
FcRn-p3 fusion protein [1] = biological target: T1, FcRn-p3 fusion protein (human, UniProt P55899 24-297; P61769 21-119); assay: phage ELISA pH6 (est.)
T1 construct: baculovirus expressed; coated on ELISA wells; not shown: amino terminal part of bacteriophage p3 protein and CVDE protein

FcRn-p3 fusion protein [2] = biological target: T1, FcRn-p3 fusion protein; assay: phage ELISA pH6

Ratio/FWT (FcRn-p3 fusion protein [1])	Ratio/Fc-H (FcRn-p3 fusion protein [2])	Binder
7.5 fold	2.3 fold	C4A_24 (other, EU numbering) CPPCPAPELLGGPSVFLFPPKPKDTLMISRTPEVTCVVVDVSHEDPEVKFNWYVDGVEVHNAKTKPREEQYNSTYRVVSVLTVPHQDWLDGKEYKCKVSNKALPVPIEKTISKAKGQPREPQVYTLPPSRDELTKNQVSLTCLVKGFYPSDIAVEWESNGQPENNYKTTPPVLDSDGSFFLYSKLTVDKSRWQQGNVFSCSVMHEALHYHYTQKSLSLSPGK
8.7 fold	2.7 fold	C4A_27 (other, EU numbering) CPPCPAPELLGGPSVFLFPPKPKDTLMISRTPEVTCVVADVSHEDPEVKFNWYVDGVEVHNAKTKPREEQYNSAYRVVSVLTVLHQDWLNGKEYKCKVSNKALPAPIEKTISKAKGQPREPQVYTLPPSRDELTKNQVSLTCLVKGFYPSDIVVEWGSNGQPENNYKTTPPVLDSDGSFFLYSKLTVDKSRWQQGNVFSCSVMHEALHYHYTQKSLSLSPGK
6.9 fold	2.2 fold	C4A_15 (other, EU numbering) CPPCPAPDLLGGPSVFLFPPKPKDTLMISRTPEVTCVVVDVSHEDPEVKFNWYVDGVEVHNAKTKPREEQYNSTYRVVSVLTVLHQDWLDGKEYKCKVSNKALPAPIEKTISKAKGQPREPQVYTLPPSRDELTKNQVSLTCLVKGFYPSDIAVEWESNGQPENNYKTTPPVLDSDGSFFLYSKLTVDKSRWQQGNVFSCSVMHEALHYHYTQKSLSLSPGK
5.4 fold	1.7 fold	C4A_32 (other, EU numbering) CPPCPAPELLGGPSVFLFPPKPKDTLMISRTPEVTCVVEDVSHEDPEVKFNWYVDGVEVHNAKTKPREEQYNSTYRVVSVLTVLHQDWLDGKEYKCKVSNKALPAPIEKTISKAKGQPREPQVYTLPPSRDELTKNQVSLTCLVKGFYPSDIVVEWESNGQPENNYKTTPPVLDSDGSFFLYSKLTVDKSRWQQGNVFSCSVMHEALHNHYTQKSLSLSPGK
11.4 fold	3.6 fold	C4A_06 (other, EU numbering) CPPCTAPELLGGPSVFLFPPKPKDTLMISRTPEVTCVVVDVSHEDPEVKFNWYVDGVEVHNAKTKPREEQYNSTYRVVSVLTVLHQDWLDGKEYKCKVSNKALPVPIEKTISKAKGQPREPQVYTLPPSRDELTKNQVSLTCLVKGFYPSDIAVEWESNGQPENNYKTTPPVLDSDGSFFLYSKLTVDKSRWQQGNVFSCSVMHEALHYHYTQKSLSLSPGK
10.8 fold	3.4 fold	C4A_28 (other, EU numbering) CPPCPAPELLGGPSVFLFPPKPKDTLMISRTPEVTCVVEDVSHEDPEVKFNWYVDGVEVHNAKTKPREEQYNSTYRVVSVLTVLHQDWLNGKEYKCKVSNKALPAPIEKTISKAKGQPREPQVYTLPPSRDELTKNQVSLTCLVKGFYPSDIVVEWESNGQPENNYKTTPPVLDSDGSFFLYSKLTVDKSRWQQGNVFSCSVMHEALHYHYTQKSLSLSPGK
8.9 fold	2.8 fold	C4A_25 (other, EU numbering) CPPCPAPELLGGPSVFLFPPKPKDTLMISRTPEVTCVVVDVSHEDPEVKFNWYVDGVEVHNAKTKPREEQYNSTYRVVSVLTVLHQDWLDGKEYKCKVSNKALPVPIEKTISKAKGQPREPQVYTLPPSRDELTKNQVSLTCLVKGFYPSDIAVEWESNGQPENNYKTTPPMLDSDGSFFLYSKLTVDKSRWQQGNVFSCSVMHEALHYHYTQKSLSLSPGK
8.9 fold	2.8 fold	C4A_36 (other, EU numbering) CPPCPAPELLGGPSVFLFPPKPKDTLMISRTPEVTCVVVDVSHEDPEVKFNWYVDGVEVHNAKTKPREEQYNSTYRVVSVLTVLHQDWLDGKEYTCKVSNKALPAPIEKTISKAKGQPREPQVYTLPPSRDELTKNQVSLTCLVKGFYPSDIAVEWESNGQPENNYKTTPPVLDSDGSFFLYSKLTVDKSRWQQGNVFSCSVMHEALHYHYTQKSLSLSPGK
12 fold	3.7 fold	C3A_42 (other, EU numbering) CPPCPAPELLGGPSVFLFPPKPKDTLMISRTPEVTCVVVDVSHEDPEVKFNWYVDGVEVHNAKTKPREEQYNSTYRVVSVLTVLHQDWLDGKEYKCKVSNKALPVPIEKTISKAKGQPREPQVYTLPPSRDELTKNQVSLTCLVKGFYPSDIAVEWESNGQPEKNYKTTPPMLDSDGSFFLYSKLTVDKSRWQQGNVFSCSVMHEALHYHYTQKSLSLSPGK
8.1 fold	2.5 fold	C3A_43 (other, EU numbering) CPPCPAPELLGGPSVFLFPPKPKDTLMISRTPEVTCVVVDVSHEDPEVKFNWYVDGVEVHNAKTKPREEQYNSTYRVVSVLTVLHQDWLDGKEYKCKVSNKALPAPIEKTISKAKGQPREPQVYTLPPSRDELTKNQVSLTCLVKGFYPSDIAVEWESNGQPENNYKTTPPVLDSDGSFFLYSKLTVDKSGWQQGNVFSCSVMHEALHYHYTQKSLSLSPGK
12 fold	3.8 fold	C4A_29 (other, EU numbering) CPPCPAPELLGGPSVFLFPPKPKDTLMISRTPEVTCVVVDVSHEDPEVKFNWYVDGVEVHNAKTKPREEQYNSTYRVVSVLPVLHQDWLDGKEYKCKVSNKALPAPIEKTISKAKGQPREPQVYTLPPSRDELTKSRVSLTCLVKGFYPSDIAVEWESNGQPENNYKTTPPVLDSDGSFFLYSKLTVDKSRWQQGNVFSCSVMHEALHYHYTQKSLSLSPGK
7.5 fold	2.4 fold	C4A_01 (other, EU numbering) CPPCPAPELLGGPSVFLFPPKPKDTLMISRTPEVTCVVVDVSHEDPEVKFNWYVDGVEVHNAKTKPREEQYNSTYRVVSVLTVLHQDWLDGKEYKCKVSNKALPAPIEKTISKAKGQPREPQVYTLPPSRDELTKNRVSLTCLVKGFYPSDIAVEWESNGQPEKNYKTTPPVLDSDGSFFLYSKLTVDKSRWQQGNVFSCSVMHEALHYHYTQKSLSLSPGK
8.1 fold	2.5 fold	C4A_18 (other, EU numbering) CPPCPAPELLGGPSVFLFPPKPKDTLMISRTPEVTCVVVDVSHEDPEVKFNWYVDGVEVHNAKTKPREEQYNSTYRVVSVLTVLHQDWLDGKEYKCKVSNKALPVPIEKTISKAKGQPREPQVYTLPPSRDELTKNQVSLTCLVKGFYPSDIVVEWESNGQPENNYKTTPPVLDSDGSFFLYSKLTVDKSRWQQGNVFSCSVMHEALHYHYTQKSLSLSPGK

The next lines start with the binder.

Binder	Ratio/FWT (FcRn-p3 fusion protein [1])	Ratio/Fc-H (FcRn-p3 fusion protein [2])
C3A_01 (other, EU numbering) CPPCPAPELLGGPSVFLFPPKPKDTLMISRTPEVTCVVVDVSHEDPEVKFNWYVDGVEVHNAKTKPREEQYNSTYRVVSVLTVLHQDWLDGKEYKCKVSNKALPVPIEKTISKAKGQPREPQVYTLPPSRDELTKNQVSLTCLVKGFYPSDIAVEWESNGQPENNYKTTPPVLDSDGSFFLYSKLTVDKSRWQQGNVFSCSVMHEALHYHYTQKSLSLSPGK	8 fold	2.5 fold
C3A_31 (other, EU numbering) CPPCPAPELLGGPSVFLFPPKPKDTLMISRTPEVTCVVVDVSHEDPEVKFNWYVDGVEVHNAKTKPREEQYNSTYRVVSVLTVLHQDWLDGKEYKCKVSNKALPVPIEKTISKAKGQPREPQVYTLPPSRDELTKNQVSLTCLVKGFYPSDIAVEWESNGQPEKNYKTTPPVLDSGGSFFLYSKLTVDKSRWQQGNVFSCSVMHEALHYHYTQKSLSLSPGK	6.9 fold	2.2 fold
C3A_21 (other, EU numbering) CPPCPAPELLGGPSVFLFPPKPKDTLMISRTPEVTCVVVDVSHEDPEVKFNWYVDGVEVHNAKTKPREEQYNSTYRVVSVLTVLHQDWLDGKEYKCKVSNKALPVPIEKTISKAKGQPREPQVYTLPPSRDELTKNQVSLTCLVKGFYPSDIAVEWESNGQPENNYKTTPPVLDPDGSFFLYSKLTVDKSRWQQGNVFSCSVMHEALHYHYTQKSLSLSPGK	9.8 fold	3 fold
C3A_15 (other, EU numbering) CPPCPAPELLGGPSVFLFPPKPKDTLMISRTPEVTCVVEDVSHEDPEVKFNWYVDGVEVHNAKTKPREEQYNSTYRVVSVLAVLHQDWLNGKEYKCKVSNKALPAPIEKTISKAKGQPREPQVYTLPPSRDELTKNQVSLTCLVKGFYPSDIVVEWESNGQPENNYKTTPPVLDSDGSFFLYSKLTVDKSRWQQGNVFSCSVMHEALHNHYTQKSLSLSPGK	6 fold	1.9 fold
C3A_07 (other, EU numbering) CPPCPAPELLGGPSVFLFPPKPKDTLMISRTPEVTCVVVDVSHEDPEVKFNWYVDGVEVHNAKTKPREEQYNSTYRVVSVLPVLHQDWLNGKEYKCKVSNKALPTPIEKTISKAKGQPREPQVYTLPPSRDELTKNQVSLTCLVKGFYPSDIVVEWESNGQPENNYKTTPPVLDSDGSFFLYSKLTVDKSRWQQGNVFSCSVMHEALHNHYTQKSLSLSPGK	4.2 fold	1.3 fold
C3A_39 (other, EU numbering) CPPCPVPELLGGPSVFLFPPKPKDTLMISRTPEVTCVVVDVSHEDPEVKFNWYVDGVEVHNAKTKPREEQYNSTYRVVSVLTVLHQDWLNGKEYKCKVSNKALPAPIEKTISKAKGEPREPQVYTLPPSRDELTKNQVSLTCLVKGFYPSDIAVEWESNGQPENNYKTTPPVLDSDGSFFLYSKLTVDKSRWQQGNVFSCSVMHEALHYHYTQKSLSLSPGK	5.6 fold	1.8 fold
C3A_24 (other, EU numbering) CPPCPAPELLGGPSVFLFPPKPKDTLMISRTPEVTCVVVDVSHEDPEVKFNWYVDGVEVHNAKTKPREEQYNSTYRVVSVLPVLHQDWLNGKEYKCKVSNKALPAPIEKTISKAKGQPREPQVYTLPPSRDELTKNQVSLTCLVKGFYPSDIAVEWESNGQPETNYKTTPPVLDSGGSFFLYSKLTVDKSRWQQGTVFSCSVMHEALHYHYTQKSLSLSPGK	9.2 fold	2.9 fold
C3A_08 (other, EU numbering) CPPCPAPELLGGPSVFLFPPKPKDTLMISRTPEVTCVVEDVSHEDPEVKFNWYVDGVEVHNAKTKPREEQYNSTYRVVSVLTVLHQDWLNGKEYKCKVSNKALPAPIEKTISKAKGQPREPQVYTLSPSRDELTKNQVSLTCLVKGFYPSDIVVEWESNGQPENNYKTTPPVLDSDGSFFLYSKLTVDKSRWQQGNVFSCSVMHEALHSHYTQKSLSLSPGK	9.7 fold	3 fold
